Test results published in paper PMC9482650, “Quantitative fragmentomics allow affinity mapping of interactomes” (Nature Communications, 2022).

Assays:
Assay in all cases: holdup assay
Parameters in all cases: key: below the threshold = too weak to quantify, mostly under pKd 3.1 to 4
LAP2, Q96RT1 = biological target: LAP2, Q96RT1
DLG5_1, Q8TDM6 = biological target: DLG5_1, Q8TDM6
Inadl_5, Q8NI35 = biological target: Inadl_5, Q8NI35
TJP2_1, Q9UDY2 = biological target: TJP2_1, Q9UDY2
LIN7B, Q9HAP6 = biological target: T1, LIN7B, Q9HAP6
T1 sequence (Q9HAP6 88-185, limits assumed, looked up): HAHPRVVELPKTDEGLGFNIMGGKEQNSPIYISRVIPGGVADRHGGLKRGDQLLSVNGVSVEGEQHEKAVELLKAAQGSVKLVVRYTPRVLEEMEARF

SCRIB_2, Q14160 = biological target: SCRIB_2, Q14160
Chain of SCRIB_2, Q14160 (Q14160 857-960): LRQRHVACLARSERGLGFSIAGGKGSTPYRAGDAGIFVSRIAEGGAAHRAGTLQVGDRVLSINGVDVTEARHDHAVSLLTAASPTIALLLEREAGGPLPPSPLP

LRRC7, Q96NW7 = biological target: T2, LRRC7, Q96NW7
T2 sequence (Q96NW7 1440-1537, limits assumed, looked up): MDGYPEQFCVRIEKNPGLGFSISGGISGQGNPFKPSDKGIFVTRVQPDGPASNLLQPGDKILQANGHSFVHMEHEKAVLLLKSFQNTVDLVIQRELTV

GRID2IP_2, A4D2P6 = biological target: GRID2IP_2, A4D2P6
Chain of GRID2IP_2, A4D2P6 (A4D2P6 272-370): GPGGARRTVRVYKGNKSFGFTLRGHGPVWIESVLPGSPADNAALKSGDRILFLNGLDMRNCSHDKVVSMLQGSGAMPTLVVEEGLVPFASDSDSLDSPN

SCRIB_3, Q14160 = biological target: SCRIB_3, Q14160
Chain of SCRIB_3, Q14160 (Q14160 999-1103): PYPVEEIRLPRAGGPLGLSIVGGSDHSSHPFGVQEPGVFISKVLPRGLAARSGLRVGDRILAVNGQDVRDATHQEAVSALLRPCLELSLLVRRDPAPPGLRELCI

HTRA3, P83110 = biological target: T3, HTRA3, P83110
T3 sequence (P83110 354-453, limits assumed, looked up): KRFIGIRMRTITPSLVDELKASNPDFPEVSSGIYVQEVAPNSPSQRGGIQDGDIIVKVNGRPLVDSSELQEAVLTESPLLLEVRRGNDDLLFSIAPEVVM

Inadl_10, Q8NI35 = biological target: Inadl_10, Q8NI35
Chain of Inadl_10, Q8NI35 (Q8NI35 1673-1763): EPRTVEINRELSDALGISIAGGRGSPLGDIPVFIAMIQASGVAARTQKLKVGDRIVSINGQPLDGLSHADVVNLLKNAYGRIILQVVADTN

NHERF3_3, Q5T2W1 = biological target: T4, NHERF3_3, Q5T2W1
T4 sequence (Q5T2W1 238-333, limits assumed, looked up): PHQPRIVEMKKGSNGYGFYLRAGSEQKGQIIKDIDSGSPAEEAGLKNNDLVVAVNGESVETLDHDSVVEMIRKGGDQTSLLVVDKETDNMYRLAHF

IL16_3, Q14005 = biological target: IL16_3, Q14005
Chain of IL16_3, Q14005 (Q14005 1107-1207): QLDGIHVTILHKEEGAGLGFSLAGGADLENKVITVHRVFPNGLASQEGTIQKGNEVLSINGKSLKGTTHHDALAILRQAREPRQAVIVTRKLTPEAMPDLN

LNX2_2, Q8N448 = biological target: T5, LNX2_2, Q8N448
T5 sequence (Q8N448 334-432, limits assumed, looked up): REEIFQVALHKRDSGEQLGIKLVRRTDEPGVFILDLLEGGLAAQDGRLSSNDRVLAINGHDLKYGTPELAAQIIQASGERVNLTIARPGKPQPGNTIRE

NHERF4_2, Q86UT5 = biological target: NHERF4_2, Q86UT5
Chain of NHERF4_2, Q86UT5 (Q86UT5 220-308): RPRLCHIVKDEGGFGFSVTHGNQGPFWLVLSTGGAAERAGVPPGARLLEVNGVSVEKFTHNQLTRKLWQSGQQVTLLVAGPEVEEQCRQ

MAGI2_4, Q86UL8 = biological target: MAGI2_4, Q86UL8
Chain of MAGI2_4, Q86UL8 (Q86UL8 772-865): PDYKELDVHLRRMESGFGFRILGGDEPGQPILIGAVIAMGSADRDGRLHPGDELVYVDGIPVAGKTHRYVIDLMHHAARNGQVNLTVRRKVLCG

GRIP2_7, Q9C0E4 = biological target: GRIP2_7, Q9C0E4
Chain of GRIP2_7, Q9C0E4 (Q9C0E4 934-1023): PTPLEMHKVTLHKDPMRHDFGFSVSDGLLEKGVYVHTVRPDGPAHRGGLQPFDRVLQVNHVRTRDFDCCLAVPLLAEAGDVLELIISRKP

PICK1, Q9NRD5 = biological target: PICK1, Q9NRD5
Chain of PICK1, Q9NRD5 (Q9NRD5 17-115): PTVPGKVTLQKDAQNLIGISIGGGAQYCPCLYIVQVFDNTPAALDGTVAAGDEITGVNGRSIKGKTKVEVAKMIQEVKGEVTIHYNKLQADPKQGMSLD

NHERF4_1, Q86UT5-2 = biological target: NHERF4_1, Q86UT5-2
Chain of NHERF4_1, Q86UT5-2 (Q86UT5 other isoform, or with tags, fused parts or gaps): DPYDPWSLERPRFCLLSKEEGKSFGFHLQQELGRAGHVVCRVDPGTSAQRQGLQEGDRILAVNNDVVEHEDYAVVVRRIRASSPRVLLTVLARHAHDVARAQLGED

GRIP2_5, Q9C0E4 = biological target: GRIP2_5, Q9C0E4
Chain of GRIP2_5, Q9C0E4 (Q9C0E4 544-642): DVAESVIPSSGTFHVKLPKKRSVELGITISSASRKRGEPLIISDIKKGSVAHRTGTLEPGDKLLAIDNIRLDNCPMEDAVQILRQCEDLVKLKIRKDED

LDB3, O75112 = biological target: LDB3, O75112
Chain of LDB3, O75112 (O75112 1-94): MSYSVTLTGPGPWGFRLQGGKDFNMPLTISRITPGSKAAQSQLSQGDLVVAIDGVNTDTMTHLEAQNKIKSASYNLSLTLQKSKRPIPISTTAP

SNX27, Q96L92 = biological target: SNX27, Q96L92
NHERF3_1, Q5T2W1 = biological target: T6, NHERF3_1, Q5T2W1
T6 sequence (Q5T2W1 4-100, limits assumed, looked up): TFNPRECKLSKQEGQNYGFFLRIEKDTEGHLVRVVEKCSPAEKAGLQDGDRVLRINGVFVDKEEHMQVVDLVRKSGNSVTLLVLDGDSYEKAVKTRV

GOPC, Q9HD26 = biological target: GOPC, Q9HD26
SNTG1, Q9NSN8 = biological target: T7, SNTG1, Q9NSN8
T7 sequence (Q9NSN8 52-150, limits assumed, looked up): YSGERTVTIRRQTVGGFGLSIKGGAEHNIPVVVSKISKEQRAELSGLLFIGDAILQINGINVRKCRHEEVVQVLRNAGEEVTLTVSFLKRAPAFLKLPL

CARD11, Q9BXL7 = biological target: T8, CARD11, Q9BXL7
T8 sequence (Q9BXL7 662-765, limits assumed, looked up): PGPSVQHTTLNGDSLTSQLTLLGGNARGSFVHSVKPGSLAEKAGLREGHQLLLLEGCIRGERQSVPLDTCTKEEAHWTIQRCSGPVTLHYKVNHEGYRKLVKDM

PCLO, Q9Y6V0 = biological target: T9, PCLO, Q9Y6V0
T9 sequence (Q9Y6V0 4491-4600, limits assumed, looked up): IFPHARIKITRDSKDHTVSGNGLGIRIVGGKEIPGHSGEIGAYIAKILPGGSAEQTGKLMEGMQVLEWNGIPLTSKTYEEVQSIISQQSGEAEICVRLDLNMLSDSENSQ

DLG4_3, P78352 = biological target: DLG4_3, P78352
Chain of DLG4_3, P78352 (P78352 306-403): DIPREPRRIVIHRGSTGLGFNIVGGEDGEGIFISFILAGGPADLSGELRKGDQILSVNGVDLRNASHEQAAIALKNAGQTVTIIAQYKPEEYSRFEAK

[1] = plain residues with an end cap or a label only (N-terminal biotin on a linker: (peg)3)
[2] = plain residues with an end cap or a label only (N-terminal biotin on a linker: ahx)
[3] = plain residues with an end cap or a label only (N-terminal biotin on a linker: ado-ado)

Chain of Inadl_5, Q8NI35 (Q8NI35 673-780): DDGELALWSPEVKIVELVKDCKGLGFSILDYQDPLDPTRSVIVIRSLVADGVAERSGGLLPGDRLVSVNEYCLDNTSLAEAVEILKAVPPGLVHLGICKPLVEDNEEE
Chain of LAP2, Q96RT1 (Q96RT1 other isoform, or with tags, fused parts or gaps): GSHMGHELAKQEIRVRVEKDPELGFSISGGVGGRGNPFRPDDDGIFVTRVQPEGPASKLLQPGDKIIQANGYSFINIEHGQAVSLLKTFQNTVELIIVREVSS
Chain of TJP2_1, Q9UDY2 (Q9UDY2 24-128): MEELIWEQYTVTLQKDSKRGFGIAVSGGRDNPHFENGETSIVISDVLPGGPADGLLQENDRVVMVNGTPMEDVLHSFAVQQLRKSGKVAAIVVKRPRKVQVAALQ
Chain of DLG5_1, Q8TDM6 (Q8TDM6 617-713): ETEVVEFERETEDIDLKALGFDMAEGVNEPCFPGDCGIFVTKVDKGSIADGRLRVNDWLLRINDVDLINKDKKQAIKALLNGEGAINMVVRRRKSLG

B1: WNV-NS5, Q9Q6P4 (peptide)
chain: RYEDTTLVEDTVL
**Q.** B1 was tested. Which pKd (LAP2, Q96RT1; [1]) did it give?
**A.** below the threshold

**Q.** And the pKd (DLG5_1, Q8TDM6; [1])?
**A.** below the threshold

**Q.** And the pKd (Inadl_5, Q8NI35; [1])?
**A.** below the threshold

**Q.** And the pKd (TJP2_1, Q9UDY2; [1])?
**A.** below the threshold

**Q.** What about the pKd (LIN7B, Q9HAP6; [1]) of the same binder?
**A.** below the threshold

**Q.** What about the pKd (SCRIB_2, Q14160; [1]) of the same binder?
**A.** below the threshold

**Q.** What about the pKd (LRRC7, Q96NW7; [1]) of the same binder?
**A.** 3.49

**Q.** What about the pKd (GRID2IP_2, A4D2P6; [1]) of the same binder?
**A.** 3.72

**Q.** And the pKd (SCRIB_3, Q14160; [1])?
**A.** 3.97

**Q.** What about the pKd (HTRA3, P83110; [1]) of the same binder?
**A.** below the threshold

**Q.** And the pKd (Inadl_10, Q8NI35; [1])?
**A.** below the threshold

**Q.** What about the pKd (NHERF3_3, Q5T2W1; [1]) of the same binder?
**A.** below the threshold

**Q.** And the pKd (IL16_3, Q14005; [1])?
**A.** below the threshold

**Q.** And the pKd (LNX2_2, Q8N448; [1])?
**A.** below the threshold

**Q.** And the pKd (NHERF4_2, Q86UT5; [1])?
**A.** below the threshold

**Q.** And the pKd (MAGI2_4, Q86UL8; [1])?
**A.** below the threshold

**Q.** And the pKd (GRIP2_7, Q9C0E4; [1])?
**A.** below the threshold

**Q.** And the pKd (PICK1, Q9NRD5; [1])?
**A.** below the threshold

**Q.** What about the pKd (NHERF4_1, Q86UT5-2; [1]) of the same binder?
**A.** 4.17

**Q.** And the pKd (GRIP2_5, Q9C0E4; [1])?
**A.** below the threshold

**Q.** And the pKd (LDB3, O75112; [1])?
**A.** below the threshold

**Q.** What about the pKd (SNX27, Q96L92; [1]) of the same binder?
**A.** 5.38

**Q.** What about the pKd (NHERF3_1, Q5T2W1; [1]) of the same binder?
**A.** 4.43

**Q.** And the pKd (GOPC, Q9HD26; [1])?
**A.** 3.71

**Q.** What about the pKd (SNTG1, Q9NSN8; [1]) of the same binder?
**A.** below the threshold

**Q.** And the pKd (CARD11, Q9BXL7; [1])?
**A.** below the threshold

**Q.** And the pKd (PCLO, Q9Y6V0; [1])?
**A.** below the threshold

**Q.** And the pKd (DLG4_3, P78352; [1])?
**A.** below the threshold

B2: ABCA1, O95477 (peptide)
chain: QDEKVKESYV
**Q.** B2 was tested. Which pKd (LAP2, Q96RT1; [2]) did it give?
**A.** 4.41

**Q.** What about the pKd (DLG5_1, Q8TDM6; [2]) of the same binder?
**A.** below the threshold

**Q.** What about the pKd (Inadl_5, Q8NI35; [2]) of the same binder?
**A.** 3.73

**Q.** And the pKd (TJP2_1, Q9UDY2; [2])?
**A.** 4.36

**Q.** And the pKd (LIN7B, Q9HAP6; [2])?
**A.** 4.15

**Q.** What about the pKd (SCRIB_2, Q14160; [2]) of the same binder?
**A.** 4.61

**Q.** And the pKd (LRRC7, Q96NW7; [2])?
**A.** 4.13

**Q.** And the pKd (GRID2IP_2, A4D2P6; [2])?
**A.** 3.97

**Q.** And the pKd (SCRIB_3, Q14160; [2])?
**A.** 4.45

**Q.** What about the pKd (HTRA3, P83110; [2]) of the same binder?
**A.** 3.55

**Q.** What about the pKd (Inadl_10, Q8NI35; [2]) of the same binder?
**A.** below the threshold

**Q.** And the pKd (NHERF3_3, Q5T2W1; [2])?
**A.** 3.51

**Q.** And the pKd (IL16_3, Q14005; [2])?
**A.** below the threshold

**Q.** And the pKd (LNX2_2, Q8N448; [2])?
**A.** 3.64

**Q.** What about the pKd (NHERF4_2, Q86UT5; [2]) of the same binder?
**A.** below the threshold

**Q.** And the pKd (MAGI2_4, Q86UL8; [2])?
**A.** 4.04

**Q.** What about the pKd (GRIP2_7, Q9C0E4; [2]) of the same binder?
**A.** 3.59

**Q.** And the pKd (PICK1, Q9NRD5; [2])?
**A.** 3.76

**Q.** And the pKd (NHERF4_1, Q86UT5-2; [2])?
**A.** 3.48

**Q.** And the pKd (GRIP2_5, Q9C0E4; [2])?
**A.** below the threshold

**Q.** What about the pKd (LDB3, O75112; [2]) of the same binder?
**A.** 3.53

**Q.** What about the pKd (SNX27, Q96L92; [2]) of the same binder?
**A.** 5.63

**Q.** And the pKd (NHERF3_1, Q5T2W1; [2])?
**A.** 5.12

**Q.** What about the pKd (GOPC, Q9HD26; [2]) of the same binder?
**A.** 4.28

**Q.** What about the pKd (SNTG1, Q9NSN8; [2]) of the same binder?
**A.** 5.24

**Q.** What about the pKd (CARD11, Q9BXL7; [2]) of the same binder?
**A.** below the threshold

**Q.** What about the pKd (PCLO, Q9Y6V0; [2]) of the same binder?
**A.** below the threshold

**Q.** And the pKd (DLG4_3, P78352; [2])?
**A.** 3.78

B3: KCNJ4, P48050 (peptide)
chain: NISYRRESAI
**Q.** For B3, which pKd (LAP2, Q96RT1; [3]) is on record?
**A.** below the threshold

**Q.** What about the pKd (DLG5_1, Q8TDM6; [3]) of the same binder?
**A.** below the threshold

**Q.** What about the pKd (Inadl_5, Q8NI35; [3]) of the same binder?
**A.** below the threshold

**Q.** What about the pKd (TJP2_1, Q9UDY2; [3]) of the same binder?
**A.** below the threshold

**Q.** And the pKd (LIN7B, Q9HAP6; [3])?
**A.** 3.74

**Q.** And the pKd (SCRIB_2, Q14160; [3])?
**A.** 3.69

**Q.** And the pKd (LRRC7, Q96NW7; [3])?
**A.** below the threshold

**Q.** What about the pKd (GRID2IP_2, A4D2P6; [3]) of the same binder?
**A.** 3.51

**Q.** What about the pKd (SCRIB_3, Q14160; [3]) of the same binder?
**A.** 4.91

**Q.** And the pKd (HTRA3, P83110; [3])?
**A.** below the threshold

**Q.** What about the pKd (Inadl_10, Q8NI35; [3]) of the same binder?
**A.** below the threshold

**Q.** What about the pKd (NHERF3_3, Q5T2W1; [3]) of the same binder?
**A.** below the threshold

**Q.** And the pKd (IL16_3, Q14005; [3])?
**A.** below the threshold

**Q.** And the pKd (LNX2_2, Q8N448; [3])?
**A.** below the threshold

**Q.** And the pKd (NHERF4_2, Q86UT5; [3])?
**A.** below the threshold

**Q.** What about the pKd (MAGI2_4, Q86UL8; [3]) of the same binder?
**A.** below the threshold

**Q.** What about the pKd (GRIP2_7, Q9C0E4; [3]) of the same binder?
**A.** below the threshold

**Q.** What about the pKd (PICK1, Q9NRD5; [3]) of the same binder?
**A.** below the threshold

**Q.** What about the pKd (NHERF4_1, Q86UT5-2; [3]) of the same binder?
**A.** 3.48

**Q.** And the pKd (GRIP2_5, Q9C0E4; [3])?
**A.** below the threshold

**Q.** And the pKd (LDB3, O75112; [3])?
**A.** below the threshold

**Q.** And the pKd (SNX27, Q96L92; [3])?
**A.** below the threshold

**Q.** What about the pKd (NHERF3_1, Q5T2W1; [3]) of the same binder?
**A.** 3.75

**Q.** What about the pKd (GOPC, Q9HD26; [3]) of the same binder?
**A.** below the threshold

**Q.** What about the pKd (SNTG1, Q9NSN8; [3]) of the same binder?
**A.** below the threshold

**Q.** And the pKd (CARD11, Q9BXL7; [3])?
**A.** below the threshold

**Q.** What about the pKd (PCLO, Q9Y6V0; [3]) of the same binder?
**A.** below the threshold

**Q.** And the pKd (DLG4_3, P78352; [3])?
**A.** 4.12
